Earlier results in article PMC11053944.

How the values were obtained:
[1] = biological target: Sba1 (Saccharomyces cerevisiae) (UniProt P28707); assay: SPR
[2] = biological target: Sba1 (Saccharomyces cerevisiae) (UniProt P28707); assay: ITC

Sba1 (Saccharomyces cerevisiae), sequence (P28707 2-216): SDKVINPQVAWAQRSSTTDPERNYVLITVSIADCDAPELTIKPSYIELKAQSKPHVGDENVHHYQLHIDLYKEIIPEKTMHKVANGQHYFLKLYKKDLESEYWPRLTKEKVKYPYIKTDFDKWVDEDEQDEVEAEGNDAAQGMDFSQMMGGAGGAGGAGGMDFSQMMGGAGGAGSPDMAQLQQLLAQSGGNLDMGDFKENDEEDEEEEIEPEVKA

Q: Which Kd [1] does the source give for HSP90 (from UniProt P02829) here?
A: 540 nM

Q: And the Kd [2]?
A: 1750 nM
